Key:
[1] = target: T1, FLAG-AICD, P05067
T1 chain: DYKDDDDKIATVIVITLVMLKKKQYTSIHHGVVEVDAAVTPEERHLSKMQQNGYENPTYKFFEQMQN

[2] = target: SOD1 mutants

B1: NEDL-1 protein (protein)
chain: MASPSRNSQSRRRCKEPLRYSYNPDQFHNMDLRGGPHDGVTIPRSTSDTDLVTSDSRSTLMVSSSYYSIGHSQDLVIHWDIKEEVDAGDWIGMYLIDEVLSENFLDYKNRGVNGSHRGQIIWKIDASSYFVEPETKICFKYYHGVSGALRATTPSVTVKNSAAPIFKSIGADETVQGQGSRRLISFSLSDFQAMGLKKGMFFNPDPYLKISIQPGKHSIFPALPHHGQERRSKIIGNTVNPIWQAEQFSFVSLPTDVLEIEVKDKFAKSRPIIKRFLGKLSMPVQRLLERHAIGDRVVSYTLGRRLPTDHVSGQLQFRFEITSSIHPDDEEISLSTEPESAQIQDSPMNNLMESGSGEPRSEAPESSESWKPEQLGEGSVPDRPGNQSIELSRPAEEAAVITEAGDQGMVSVGPEGAGELLAQVQKDIQPAPSAEELAEQLDLGEEASALLLEDGEAPASTKEEPLEEEATTQSRAGREEEEKEQEEEGDVSTLEQGEGRLQLRASVKRKSRPCSLPVSELETVIASACGDPETPRTHYIRIHTLLHSMPSAQGGSAAEEEDGAEEESTLKDSSEKDGLSEVDTVAADPSALEEDREEPEGATPGTAHPGHSGGHFPSLANGAAQDGDTHPSTGSESDSSPRQGGDHSCEGCDASCCSPSCYSSSCYSTSCYSSSCYSASCYSPSCYNGNRFASHTRFSSVDSAKISESTVFSSQDDEEEENSAFESVPDSMQSPELDPESTNGAGPWQDELAAPSGHVERSPEGLESPVAGPSNRREGECPILHNSQPVSQLPSLRPEHHHYPTIDEPLPPNWEARIDSHGRVFYVDHVNRTTTWQRPTAAATPDGMRRSGSIQQMEQLNRRYQNIQRTIATERSEEDSGSQSCEQAPAGGGGGGGSDSEAESSQSSLDLRREGSLSPVNSQKITLLLQSPAVKFITNPEFFTVLHANYSAYRVFTSSTCLKHMILKVRRDARNFERYQHNRDLVNFINMFADTRLELPRGWEIKTDQQGKSFFVDHNSRATTFIDPRIPLQNGRLPNHLTHRQHLQRLRSYSAGEASEVSRNRGASLLARPGHSLVAAIRSQHQHESLPLAYNDKIVAFLRQPNIFEMLQERQPSLARNHTLREKIHYIRTEGNHGLEKLSCDADLVILLSLFEEEIMSYVPLQAAFHPGYSFSPRCSPCSSPQNSPGLQRASARAPSPYRRDFEAKLRNFYRKLEAKGFGQGPGKIKLIIRRDHLLEGTFNQVMAYSRKELQRNKLYVTFVGEEGLDYSGPSREFFFLLSQELFNPYYGLFEYSANDTYTVQISPMSAFVENHLEWFRFSGRILGLALIHQYLLDAFFTRPFYKALLRLPCDLSDLEYLDEEFHQSLQWMKDNNITDILDLTFTVNEEVFGQVTERELKSGGANTQVTEKNKKEYIERMVKWRVERGVVQQTEALVRGFYEVVDSRLVSVFDARELELVIAGTAEIDLNDWRNNTEYRGGYHDGHLVIRWFWAAVERFNNEQRLRLLQFVTGTSSVPYEGFAALRGSNGLRRFCIEKWGKITSLPRAHTCFNRLDLPPYPSYSMLYEKLLTAVEETSTFGLE
- ubiquitination (bands increasing by about 9 kD detected with anti-ubiquitin antibody) [1]: It is understood that ACID alone is subjected to ubiquitination by NEDL-1.
- ubiquitination (immunoprecipitation with FLAG, blotting with anti-ubiquitin antibody, FIG. 13) [2]: the degree of ubiquitination drastically increases in the presence of NEDL-1
